Data as given in paper PMC12080921.

Molecular target: biotinylated bovine FI (bovine)
Test: BLI; Octet RED96; biotinylated bovine FI (150 nM) on streptavidin biosensors; PmSLP-1 as analyte at 0, 5, 16, 50, 160, 500, 1600 nM; 30 °C; PBS pH 7.4, 0.01% Tween 20; steady-state analysis, one-site model
Conditions: not given

Substance | Kd [nM]
PmSLP-1^15-318 (domain or fragment) | 27

Molecular target: biotinylated bovine FI
Test: biolayer interferometry
Conditions: n = 3; parent: 27 ± 3 nM

Substance | Kd [nM]
PmSLP-1^15-318 D121A | 117
PmSLP-1^15-318 D124R | 53
PmSLP-1^15-318 D210A | 272
PmSLP-1^15-318 E132R | 28
PmSLP-1^15-318 I133D | 43
PmSLP-1^15-318 K236E | 32
PmSLP-1^15-318 L127D | 85
PmSLP-1^15-318 R167A | 107
